Assay [1] addresses T1, Human PCSK9-myc-myc-his (human, UniProt Q8NBP7 31-692).
T1 construct: also called hPCSK9-mmh; hPCSK9
Put plainly: competition ELISA vs EGF-A-hFc, pH 5.5.
Description: (§1) Briefly, hLDLR-ecto, hLDLR EGF-A-hFc or hLDLR EGF-AB-hFc, each at 2 μg/ml, was coated on a 96-well plate in PBS buffer overnight at 4° C., and nonspecific binding sites blocked with BSA. […] The equilibrated sample solutions were transferred to receptor or receptor fragment coated plates.

The target of assay [2] is T1, Human PCSK9-myc-myc-his. Description: competition ELISA vs hLDLR-ecto, pH 5.5.
Description: as §1
The target in assay [3] is T2, hPCSK9(D374Y)-mmh (human, UniProt Q8NBP7 31-692).
T2 construct: also called hPCSK(D374Y)-mmh
Description: competition ELISA vs EGF-AB-hFc, pH 5.5.
Description: as §1

Assay [4] has as its target T1, Human PCSK9-myc-myc-his. Description: SPR, antigen captured at high density, pH 7.4, 25C.
For assay [5], the target named is T2, hPCSK9(D374Y)-mmh. Description: SPR, mAb amine-coupled, 37C, pH 5.5.
Description: (§2) Briefly, mAbs were immobilized onto BIACORE™ CM5 sensor chips via amine coupling.
For assay [6], the target named is T3, cynomolgus monkey (Macaca fascicularis) PCSK9, myc-myc-his tagged (cynomolgus monkey (Macaca fascicularis), UniProt A8T662 31-692 (Macaca nemestrina entry), limits assumed).
T3 construct: also called mfPCSK9-mmh; mfPCSK9
Put plainly: SPR, mAb amine-coupled, 37C, pH 5.5.
Description: as §2

Assay [7] has as its target T1, Human PCSK9-myc-myc-his. Description: SPR, mAb amine-coupled, 37C, pH 5.5.
Description: as §2
Assay [8] has as its target T1, Human PCSK9-myc-myc-his. Description: competition ELISA vs hLDLR-ecto, pH 7.2.
Description: as §1
Assay [9] concerns the target T4, rat (Rattus norvegicus) PCSK9, myc-myc-his tagged (rat (Rattus norvegicus), UniProt P59996 31-691).
T4 construct: also called rPCSK9-mmh; rPCSK9
Description: ELISA, mAb coated, 1.7 nM antigen.

Assay [10] has as its target T2, hPCSK9(D374Y)-mmh. Description: ELISA, mAb coated, 1.7 nM antigen.
Assay [11] has as its target T5, Chimeric protein #1 (mPro-hCat-mC-term-mmh) (mouse; human, UniProt Q80W65 35-694).
T5 chain: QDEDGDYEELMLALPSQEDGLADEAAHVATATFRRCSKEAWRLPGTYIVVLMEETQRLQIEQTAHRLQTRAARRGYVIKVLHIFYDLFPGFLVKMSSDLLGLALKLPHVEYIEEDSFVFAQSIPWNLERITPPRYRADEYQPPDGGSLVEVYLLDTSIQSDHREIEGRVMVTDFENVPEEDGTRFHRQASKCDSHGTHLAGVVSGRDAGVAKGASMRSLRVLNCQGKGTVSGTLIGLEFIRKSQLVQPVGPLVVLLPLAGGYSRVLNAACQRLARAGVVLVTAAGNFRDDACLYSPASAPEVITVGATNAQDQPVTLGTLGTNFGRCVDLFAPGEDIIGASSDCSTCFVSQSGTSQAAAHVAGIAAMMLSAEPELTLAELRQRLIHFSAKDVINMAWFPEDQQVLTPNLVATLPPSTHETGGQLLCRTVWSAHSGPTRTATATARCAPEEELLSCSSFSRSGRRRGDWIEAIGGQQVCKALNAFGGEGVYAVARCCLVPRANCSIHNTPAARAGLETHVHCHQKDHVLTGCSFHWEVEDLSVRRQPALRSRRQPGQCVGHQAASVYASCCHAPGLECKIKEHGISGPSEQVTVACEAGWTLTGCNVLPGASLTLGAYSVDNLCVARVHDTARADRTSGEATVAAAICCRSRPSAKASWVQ
Put plainly: ELISA, mAb coated, 1.7 nM antigen.

Assay [12] addresses Chimeric protein #2 (hPro-mCat-mC-term-mmh) (human; mouse, UniProt Q80W65 19-694). Description: ELISA, mAb coated, 1.7 nM antigen.
In assay [13] the target is T6, mouse PCSK9, myc-myc-his tagged (mouse, UniProt Q80W65 35-694).
T6 construct: also called mPCSK9-mmh; mPCSK9
Description: ELISA, mAb coated, 1.7 nM antigen.

The target of assay [14] is T7, tagged rhesus monkey (Macaca mulata) PCSK9 (rhesus monkey (Macaca mulata), UniProt A8T666 31-692).
T7 construct: also called mmPCSK9-mmh; mmPCSK9
Description: ELISA, mAb coated, 1.7 nM antigen.

Assay [15] addresses T3, cynomolgus monkey (Macaca fascicularis) …. Put plainly: ELISA, mAb coated, 1.7 nM antigen.
Assay [16] deals with T1, Human PCSK9-myc-myc-his. Description: ELISA, mAb coated, 1.7 nM antigen.
Assay [17] addresses T6, mouse PCSK9, myc-myc-his tagged. Description: competition ELISA vs EGF-AB-hFc, pH 7.2.
Description: as §1
Assay [18] deals with T7, tagged rhesus monkey (Macaca mulata) …. Description: competition ELISA vs EGF-AB-hFc, pH 7.2.
Description: as §1
In assay [19] the target is T1, Human PCSK9-myc-myc-his. Description: competition ELISA vs EGF-AB-hFc, pH 5.5.
Description: as §1

Some results are limits rather than exact numbers.

T7 sequence (A8T666 31-692 limits assumed): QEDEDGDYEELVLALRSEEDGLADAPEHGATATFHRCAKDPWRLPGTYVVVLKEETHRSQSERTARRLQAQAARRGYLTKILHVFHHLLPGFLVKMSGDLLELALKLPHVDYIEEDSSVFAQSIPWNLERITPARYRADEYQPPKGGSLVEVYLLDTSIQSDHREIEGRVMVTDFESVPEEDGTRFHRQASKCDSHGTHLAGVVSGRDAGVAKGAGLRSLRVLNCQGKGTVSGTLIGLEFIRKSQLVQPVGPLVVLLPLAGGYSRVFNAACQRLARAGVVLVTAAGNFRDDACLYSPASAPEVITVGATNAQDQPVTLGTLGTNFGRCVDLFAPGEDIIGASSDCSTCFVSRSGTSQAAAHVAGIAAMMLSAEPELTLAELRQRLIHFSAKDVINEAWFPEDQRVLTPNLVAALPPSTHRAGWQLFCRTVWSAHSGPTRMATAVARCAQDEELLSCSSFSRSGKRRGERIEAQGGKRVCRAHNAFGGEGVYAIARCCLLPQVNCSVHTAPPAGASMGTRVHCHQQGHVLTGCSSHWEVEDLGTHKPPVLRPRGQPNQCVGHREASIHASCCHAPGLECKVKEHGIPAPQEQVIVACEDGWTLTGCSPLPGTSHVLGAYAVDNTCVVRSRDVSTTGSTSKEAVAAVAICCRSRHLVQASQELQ
T3 sequence (A8T662 31-692 limits assumed): as the sequence (A8T666 31-692 limits assumed) above, with P607A, K639E counted along it
T4 sequence (P59996 31-691 limits assumed): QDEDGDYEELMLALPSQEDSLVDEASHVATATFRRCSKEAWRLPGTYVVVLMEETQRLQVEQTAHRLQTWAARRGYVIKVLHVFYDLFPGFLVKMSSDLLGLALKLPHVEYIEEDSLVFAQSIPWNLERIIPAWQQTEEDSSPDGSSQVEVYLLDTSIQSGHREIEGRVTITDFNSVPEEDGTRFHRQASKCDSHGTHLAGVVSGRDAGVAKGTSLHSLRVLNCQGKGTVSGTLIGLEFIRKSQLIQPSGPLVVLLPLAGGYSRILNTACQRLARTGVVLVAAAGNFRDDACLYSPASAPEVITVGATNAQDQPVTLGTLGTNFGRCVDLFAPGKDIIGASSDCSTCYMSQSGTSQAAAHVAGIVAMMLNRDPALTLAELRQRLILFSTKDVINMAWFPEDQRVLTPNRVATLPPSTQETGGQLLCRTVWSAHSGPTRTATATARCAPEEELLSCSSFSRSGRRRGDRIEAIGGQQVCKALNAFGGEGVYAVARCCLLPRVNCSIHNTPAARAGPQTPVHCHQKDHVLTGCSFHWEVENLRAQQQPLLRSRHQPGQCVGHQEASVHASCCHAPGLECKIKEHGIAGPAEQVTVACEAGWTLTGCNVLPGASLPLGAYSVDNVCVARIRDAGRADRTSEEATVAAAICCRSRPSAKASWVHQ

B1: H1M300N (antibody, V domains shown)
VH: EMQLVESGGGLVQPGGSLRLSCAASGFTFSSHWMKWVRQAPGKGLEWVANINQDGSEKYYVDSVKGRFTISRDNAKNSLFLQMNSLRAEDTAVYYCARDIVLMVYDMDYYYYGMDVWGQGTTVTVSS
VL: not shown
notes: Fully human version made in CHO cells
Regarding B1, the IC50 was 0.538 nM in the assay with Human PCSK9-myc-myc-his [1]; 1.49 nM with Human PCSK9-myc-myc-his [2]; 3.94 nM with hPCSK9(D374Y)-mmh [3]; 0.144 nM with Human PCSK9-myc-myc-his [8]; more than 33 nM in assay [17]; 0.29 nM in assay [18]. This molecule also registered an IC50 with Human PCSK9-myc-myc-his [19] of 0.447 nM. The Kd with Human PCSK9-myc-myc-his [4] came to 0.065 nM; in the assay with hPCSK9(D374Y)-mmh [5] it was 28 nM; in assay [6], 65.2 nM; with Human PCSK9-myc-myc-his [7], 11.9 nM. Besides, the T1/2 with Human PCSK9-myc-myc-his [4] is 507 min; with hPCSK9(D374Y)-mmh [5], 1 min; in assay [6], 0.1 min; in the assay with Human PCSK9-myc-myc-his [7], 1 min. Further, the OD in assay [9] is less than 0.7 od; in the assay with hPCSK9(D374Y)-mmh [10], more than 1.5 od; in assay [11] it was more than 1.5 od; in [12], more than 1.5 od; in [13], less than 0.7 od; in [14], more than 1.5 od. The OD (in assay [15]; in the assay with Human PCSK9-myc-myc-his [16]) was more than 1.5 od throughout.

B2: H1H316P (antibody, V domains shown)
VH: EVQLVESGGGLVQPGGSLRLSCAASGFTFNNYAMNWVRQAPGKGLDWVSTISGSGGTTNYADSVKGRFIISRDSSKHTLYLQMNSLRAEDTAVYYCAKDSNWGNFDLWGRGTLVTVSS
VL: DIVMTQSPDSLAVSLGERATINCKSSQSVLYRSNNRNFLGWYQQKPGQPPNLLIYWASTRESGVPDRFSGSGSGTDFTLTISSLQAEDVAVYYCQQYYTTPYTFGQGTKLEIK
notes: Fully human mAb made in CHO cells; also called mAb316P
Regarding B2, the IC50 is less than 0.125 nM in the assay with Human PCSK9-myc-myc-his [1]; less than 0.125 nM with Human PCSK9-myc-myc-his [2]; 1.14 nM in the assay with hPCSK9(D374Y)-mmh [3]; less than 0.125 nM with Human PCSK9-myc-myc-his [8]; less than 0.25 nM in assay [17]; less than 0.25 nM in [18]. This molecule showed an IC50 with Human PCSK9-myc-myc-his [19] of less than 0.125 nM. Moreover, the Kd amounted to 0.191 nM with Human PCSK9-myc-myc-his [4], 1.56 nM with hPCSK9(D374Y)-mmh [5], 0.044 nM in assay [6] and 0.142 nM with Human PCSK9-myc-myc-his [7]. Further, the T1/2 amounted to 74 min with Human PCSK9-myc-myc-his [4], 5 min in the assay with hPCSK9(D374Y)-mmh [5], 5 min in assay [6] and 11 min with Human PCSK9-myc-myc-his [7]. Moreover, the OD (in assay [9]; with hPCSK9(D374Y)-mmh [10]; in assay [11]; in [12]; in assay [13]; in assay [14]) was more than 1.5 od throughout. Also, the OD (in assay [15]; with Human PCSK9-myc-myc-his [16]) was more than 1.5 od in each case.

The values are drawn from patent publication US20130064834A1 (published 2013).
